Results published in the nanobody polyreactivity screen of Harvey et al. (2022).

test: yeast display, Sf9 membrane polyspecificity reagent, FACS + sequencing; frameworks hold sequencing errors
In short: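 Galactose-induced (36–48 hours) yeast carrying a synthetic nanobody display library were exposed to 10% biotinylated, detergent-solubilized Sf9 membrane reagent at 4 °C for 1 hour. FACS followed streptavidin microbead enrichment, using low and high (top ~1%) gates for expression (anti-HA) and reagent binding (streptavidin). Colony PCR, MiSeq 2 × 250 sequencing and CDR-length filtering followed. Labels for polyreactivity reflect the gate of origin.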

Row | Sequence | polyreactivity (PSR sort gate)
1 | QVQLVESGGGLVQAGGSLRLSSAATGSIFRGNAIGWYRQAPWKELELVASISYSRGSTYYADSVKGRFTISRDNEKNTVYLQMNSVKPEETAVYYCARDYDAAYYLSEYIRSVEFDYWGQGTQVTVSS | low polyreactivity
2 | QVQLVESGGGLVQAGGSLRLSSADSGRTFWDNTMGWYRQAPGKERELVAAISGGDSTYYADSVKGRFTISRDNAKNTVYLQMNSLKPEDTAVYYCAAAYATPTLYYYWGQGTQVTVSS | low polyreactivity
3 | QVQLVESGGGLVQAGGSLRLSSADSGRTFYGNAMGWYRQSPGKERELVAAISKRGGNTYYADSVKWRFTISRDNAKNTVYLQMNSLKPEDTAVYYCARQARTPSSWYIYDSWGQGTQVTVSS | high polyreactivity
4 | QVQLVESGGGLVQAGGSLRLSSADSGSIFVYNDMGWYRQAPGKERELVARIDWSGDRTYADSVKGRFTISRDNAKNTVYLQMNSLKPEDTAVYYCNADEWRWDEIIPYAVDYCGQGTQVTVSS | low polyreactivity
5 | QVQLVESGGGLVQAGGSLRLSSAGSGSTLGFNAMGWYRQAPGKEREFVAGNSASGSSTYFADSVKGRFTISRDNAKNTVYLHINSLKTEDSAVYYFYARVRVRLGRNWSTYYYWGQGTEVTVSS | high polyreactivity
6 | QVQLVESGGGLVQAGGSLRLSSASSGNILQGNAMGSYRQAPGKEMELVAAITSDGSTYADSVKGRFTISRDNAQNTVYLQMNSLKPEDTAVFYCNADGITSLPVTALDYWGQGTQVTVSS | low polyreactivity
7 | QVQLVESGGGLVQAGGSLRLSSSASGSIFASNAMGWYRQEPGKERELVAAINSGDSTNYADSVKGRFTISRDNAKNTVYLQMNSLKPEDTAVYYCNAEYRYYQKTPVLYTNVEYDYWGQGTQVTVSS | low polyreactivity
8 | QVQLVESGGGLVQAGGSLRLSWAASGFTFPAYPMGWYRQAPGKERELVASISSSGRTNYADSEKGRFTISRDNAKNTVYLEMYSLKPEDTAVYYCAALLKQRSTSYGYWGQGSQVTVSS | high polyreactivity
9 | QVQLVESGGGLVQAGGSLRLSWAASGGTFYFNAMGWYLQAAGKEWELVATIRYSGGSTYYADSVKGRFTISRDNAKNTAYLQMNSLKPADTAVYYCNARPRYLSPYRPFKYNYWGQGTQVTVSS | high polyreactivity
10 | QVQLVESGGGLVQAGGSLRLSWAASGITFYVYAMGWYRQAPGKERELVAAISRRGGSTSYADSVKGRFTISRDNAKNTVYLQMNSLKPEDTAVYYGAAGPFYGGIVRRYDYWGQGTQVTVSS | low polyreactivity
11 | QVQLVESGGGLVQAGGSLRLSWAASGLTFETYVMGWYRQAPGKERELVAAISSSGRTYYADSVKGRFTISRDNAKNTVYLQMNSLKPEDTAVYYCAARGREFGYWGQGTQVTVSS | high polyreactivity
12 | QVQLVESGGGLVQAGGSLRLSWAASGRIFYGYTMGWYRQAPGKERELVASITIRGSRTYYADSVKGRCTISRDNAKNTVYLQINSLKPEDTAVYYCAADFVPARTVHRYDYWGQGTQVTVSS | low polyreactivity
13 | QVQLVESGGGLVQAGGSLRLSWAASGRIPYNAMGWYRQAPGKERELVAAISRSGTRTYYADSVKGRFTISRDNAKNTVFFQMNSLKPEDTAVYYCAAEYTRSFYIYYRFGYWVQGTQVTVSS | high polyreactivity
14 | QVQLVESGGGLVQAGGSLRLSWAASGRLFDGYAMGWYRQAPGTERELVATISSSGGATYYADSVKGRFTISRDNAKNTVYLQMNSLKPEDTAVYYCATAGSVSHWYSYFAFWERDYWGQGTQVTVSS | low polyreactivity
15 | QVQLVESGGGLVQAGGSLRLSWAASGRTFGVYAMGWYRQAPGTERELVATITRSGGRTYYADSVKGRFTLSRDTAKNTVYLQMNSLKPEATAVYYCNAGHGSLRYNYWGQGTQVTVSS | high polyreactivity
16 | QVQLVESGGGLVQAGGSLRLSWAASGRTFKSNAMGWYRPAPGKERELVAAISWGGGSTYYADSVKGRFTISRDNAKNTVYLQMNSLKPEDTAVYYCARRDIYGSYGFYTGGVDYWGQGTQVTVSS | low polyreactivity
17 | QVQLVESGGGLVQAGGSLRLSWAASGRTFNRYVMGWYRQAPGKERELVAAISRSGTSTYYADSVKGRFTISRDNAKNTVYLQMNSLKPEDTAVYYCAREYQTVSFKNYYWGQGTQVTVSS | high polyreactivity
18 | QVQLVESGGGLVQAGGSLRLSWAASGRTLKYNAMGWYRQAHGKERELVSAISYSGSSTYYADSVKGRFTISRDNAKNTVYLQMNSLKPEDTAVYYCNTARPTAAYDYWGQGTQVTVSS | low polyreactivity
19 | QVQLVESGGGLVQAGGSLRLSWAASGSIFDENAMGLSRQAPGKERELVAAISRSTGSTYYADSVKGRFTISRDKAKNTVYVQMNSLKPEDTAVYYCNALTYLRGPPWYTLDYWGQGTQVTVSS | low polyreactivity
20 | QVQLVESGGGLVQAGGSLRLSWAASGSIITSNGMGWYRQAPGKERELVAAITSGTSTYYADSVKGRFTISRDNAKNTVYLQMNSLKPEDTAVYYCAAGRWWVYRYARYYYWGQGTQVTVSS | high polyreactivity

Row | Sequence | polyreactivity (PSR sort gate)
21 | QVQLVESGGGLVQAGGSLRLTCAASASNFVSYPMGWYRPAHGKERELVAAITSAGTTYYAYSVKGRFTISRDNAKNTVYLQMNTLKPEDTAVYYCNTDASFKRTRVSPETEYGYWGQGTQVTVSS | low polyreactivity
22 | QVQLVESGGGLVQAGGSLRLTCAASGFIFGTYAMGWYRLSPGKERELVAAISSGGSTYYAYSVKGRFTISRDNAKYTVYLQMNSLKPEDTAVYYCAKEGGTYRIFNYWGQGTQVTLSS | low polyreactivity
23 | QVQLVESGGGLVQAGGSLRLTCAASGFIFRKYTMGWYRQAPGKERELVATLDSSGGSTYYADSVKGRFTISRDNAKNTVYLQMNSLKPEDTAVYYCNADLRELSPWYWYSGEMDYWGQGTQVTVSS | low polyreactivity
24 | QVQLVESGGGLVQAGGSLRLTCAASGFIFRSYAMGWYRQAPGKERELVAVISRRGVNTHYADSVKGRFTISRDNAKNTVYLQMNSLKPEDTAVYYCAKGLTALGDYWGQGTQVTVSS | high polyreactivity
25 | QVQLVESGGGLVQAGGSLRLTCAASGFIFSKNAMGWYRQPPGKERELVAAIDTSGSSTYYAYSVKGRFTISRDNAKNSVYLQMISLKPEDTAVYYCNRDDYFFSRFDYWGQGTQVTVTS | low polyreactivity
26 | QVQLVESGGGLVQAGGSLRLTCAASGFIFVRNAMGWYRQAPGKERDLVAAISSRGGRTYYADSVKGRFTISRDNAKYTVYLQMNRLKPEDTAVYYCNADRDTQGDGYDYWGQGTQVTVSS | high polyreactivity
27 | QVQLVESGGGLVQAGGSLRLTCAASGFTFFVYAMGWYRQAPGKERELVASITFRSGTTYYADSVKGRFTISRDNAKNTVYLQMNSLKPEDTAVYYCAADSRRSSRGYGYYYWGQGTQVTVSS | high polyreactivity
28 | QVQLVESGGGLVQAGGSLRLTCAASGFTFHVNTMGWYRQAPGKEMELVAAISWSGGSTYYADSVKGRFTISRDTAKKTVYLQMNSLNPEDTAVYYCNAVPVSYRGVYWGQGTQVTVSS | low polyreactivity
29 | QVQLVESGGGLVQAGGSLRLTCAASGFTFRSYAMGWYRQAPGKEREWVAVISSSGGSTYYADSVKARFTISRDNAKNTVYLQMNSLKPEDTAVYYCNRRPATRAYLYDYWGQGTQVTGSS | high polyreactivity
30 | QVQLVESGGGLVQAGGSLRLTCAASGFTFSYYTMGRYRQAPGKERELVAAISSGGSTYYADSVKGRFTISRDNAKNSVYLQMNSLKPEDTAVYYCNAYYGSYSPANGEYWGQGTQVTVSS | high polyreactivity
31 | QVQLVESGGGLVQAGGSLRLTCAASGFTFYRYDMGWYRQAPGKERELVAAITNNGGNTYYADSVKGRFTISRDNAKNTVYLQMNSLKPDVTAVYYCATKRYYWRGYWGQGTQVSVSS | high polyreactivity
32 | QVQLVESGGGLVQAGGSLRLTCAASGFTIYLYTMGWYRQAPGKERELVATISWSGGSTYYADSVKGRFTISRDNAKNTVYLHMNSLKPEDTAVYYCAKAYNGRYTWRYDYWGQGTQVTVSS | high polyreactivity
33 | QVQLVESGGGLVQAGGSLRLTCAASGGTFDRNAMGWYRQAPGKERELVATITRRAGNTYYAYSVKGRFTISRDNAKNTVYLQMNSLKPEDTAVYYFAAYPLRSRRYYYWGQGTQVTVSS | high polyreactivity
34 | QVQLVESGGGLVQAGGSLRLTCAASGGTFQVNAMGWYRQAPGKEMELVAAINRSGGGTTYADSVKGRFTISRDNAKNTVYLQMNSLKPEDTAVYYCAVDFYTYYYVEYGYWGQGTEVTVSS | high polyreactivity
35 | QVQLVESGGGLVQAGGSLRLTCAASGIIFASNAMGWYRQAPGKEMELVATINWTDSSTYYADSVKGRFTISRDNAKNTVYLQMNSLKPEDTAVYYCNGVPHWFYRYGRYDYWGQGSQVTVSS | low polyreactivity
36 | QVQLVESGGGLVQAGGSLRLTCAASGIIFLDYVMGWYRQAPGKERELVAAINSGGSTYYADSVKGRFTISRDNAKNTVYLQMNSLKPEDTAVYYCAAVDYYKFDYWGQVTQVTVSS | low polyreactivity
37 | QVQLVESGGGLVQAGGSLRLTCAASGIIFQRNTMGWYRQAPGKERELVAAITSRGGRTYYADSVKGRFTISRDNAKNTVYLQMNSLKPEDTAVYYCAALLYFYSRPYGYWGQGTQVTVSS | high polyreactivity
38 | QVQLVESGGGLVQAGGSLRLTCAASGIIFRFYGMGWYRQEPGKEREFVAAISGGGGSTYYADSVKGRFTISRDNAKKTVYLQMNSLKPEDTAVYYCARYTYRSAFEYWGQGTQVTVSS | high polyreactivity
39 | QVQLVESGGGLVQAGGSLRLTCAASGIIFRGYAMGWYRQPPGKERELVAGITSGVRTYYADSVKGRFTISRDNAKNTVYLQMTSLKPEDTAVYYSNADAYGDDWKIYDYWGQGTQVTVSS | low polyreactivity
40 | QVQLVESGGGLVQAGGSLRLTCAASGIIFYPYAMGWYRQAPGKERELVAAISIGGGSTYYADSVKGRFTISRDNAKNTVYLQMNSLKPEDTAVYYCAAGTPYGILGYYYWGQGTQVTVSS | low polyreactivity
